{"source": "patent US20110206676A1", "about": "(UNIVERSITY OF CHICAGO, published 2011)", "binders": {"B1": {"name": "EsaB (other)", "chain": "MNQHVKVTFDFTNYNYGTYDLAVPAYLPIKNLIALVLDSLDISIFDVNTQIKVMTKGQLLVENDRLIDYQIADGDILKLL", "notes": "80 amino acid predicted soluble protein; also called purified EsaB"}}, "target": "T1, EsaC (Staphylococcus aureus, UniProt A0A0H2XIK2 1-130)", "T1 construct": "Predicted soluble 130 amino acid protein; also called EsaC polypeptide; purified EsaC", "T1 sequence": "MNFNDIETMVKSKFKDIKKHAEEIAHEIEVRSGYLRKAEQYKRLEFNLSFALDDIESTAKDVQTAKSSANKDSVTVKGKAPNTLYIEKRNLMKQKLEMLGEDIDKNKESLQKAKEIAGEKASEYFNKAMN", "assay": "purified proteins mixed; method not described"}
{"binder": "B1", "values": [{"measurement": "binding result", "value": "no binding"}]}
